Measured values from patent publication US12162937B2, “Methods of treating an inflammatory disorder by administering an antibody which binds to a connexin CX43 hemichannel” (BOARD OF REGENTS OF THE UNIVERSITY OF TEXAS SYSTEM, priority 2013, dated 2024).
Entries after “also recorded” stand apart in the source; their conditions may differ. Where two headings read alike, the source gives them in different places.

What was measured:
[1] = tested on: MDA-MB-231 cells; test: Wound healing migration assay; format: cell-based; settings: cancer cells treated directly with AD
Source text: FIGS. 5A and 5B illustrate the results of studies using a wound healing migration assay. CM-AD from osteocytes inhibits MDA-MB-231 cell migration.
FIG. 6 illustrates results of another wound healing migration assay.
Opening of osteocytic Cx43 hemichannels mediate a negative effect on cancer cell migration. Cx43 hemichannels in osteocytes are opened by administration of AD or FFSS. The opened hemichannels permit the release of various factors into the medium producing a conditioned medium (CM). The released factor(s) in the AD- or FFSS-treated CM decrease cancer cell migration as determined by soft agar and wound healing assays. An example of a soft agar assay is diagrammed in FIG. 3. […] The soft agar assay is an assay for anchorage-independent growth, as contrasted with anchorage-dependent growth. Only cancer cells can grow on soft agar and their growth on this matrix indicates the extent of the cancer cell proliferation.
In certain aspects the methods include incubating primary osteocytes or osteocyte cell lines with a test reagent in α-MEM for various periods of time and collecting the supernatant (conditioned media) at various time points. In certain aspects breast or prostate cancer cells are incubated with CM and cancer cell proliferation, migration, and invasion are determined.

[2] = molecular target: Cx43 hemichannels in osteocytes (Homo sapiens, UniProt P17302); settings: Plotkin et al., 2002; cited from earlier work
Cx43 hemichannels in osteocytes, sequence (P17302 whole entry): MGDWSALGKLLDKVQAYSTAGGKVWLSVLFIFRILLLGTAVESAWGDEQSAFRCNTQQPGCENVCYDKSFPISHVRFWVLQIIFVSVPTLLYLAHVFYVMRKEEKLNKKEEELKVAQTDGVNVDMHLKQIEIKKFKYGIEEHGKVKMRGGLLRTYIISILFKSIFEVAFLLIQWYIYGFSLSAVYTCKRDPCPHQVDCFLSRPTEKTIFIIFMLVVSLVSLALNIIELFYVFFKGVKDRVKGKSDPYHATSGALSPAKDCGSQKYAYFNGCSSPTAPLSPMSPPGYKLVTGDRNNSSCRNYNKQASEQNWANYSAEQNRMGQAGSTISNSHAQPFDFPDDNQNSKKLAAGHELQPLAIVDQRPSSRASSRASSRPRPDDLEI

[3] = molecular target: T1, Cx43 hemichannels (Mus musculus, UniProt P23242); settings: MLO-A5 osteoblasts, AD treatment
T1 sequence (P23242 whole entry): as the sequence (P17302 whole entry) above, with D124E, I164V, K243R, S251T, A253P, A257S, Q263P, N341S, S344A, L347V counted along it
Method: Ethidium bromide dye uptake was conducted and quantified as compared to non-treated basal level of uptake. Study was carried out in calcium conditions. Low calcium conditions were used as control (opens hemichannels). […] MLO-Y4 osteocytic cells were treated with 20 μM AD for 30 min in the absence or presence of 1 μg/ml Cx43(E2) antibody. Ethidium bromide dye uptake assay was conducted and quantified as compared to non-treated basal level of uptake. The assays were carried out in the presence of calcium. Low calcium conditions were used as a control (opens hemichannels).

[4] = molecular target: T2, hemichannel opening in mouse bone osteocytes (Mus musculus, UniProt P23242); test: Evans blue dye uptake in mechanically loaded tibias in vivo; settings: 25 mg/kg injected 2 hr before Evans blue dye, tibia loaded 10 min
T2 construct: from tissue; host or cells: tibial bone osteocytes of living WT mice (Cx43 cKO mice as negative control)
T2 sequence (P23242 whole entry): as the sequence (P17302 whole entry) above, with D124E, I164V, K243R, S251T, A253P, A257S, Q263P, N341S, S344A, L347V counted along it
Method: FIG. 17. […] Mouse IgG or Cx43(M1) mAb (25 mg/kg) was injected 2 hr before Evans blue dye injection Into WT and Cx43 cKO mice. 30 min after dye injection, left (L) tibias were mechanically loaded once for 10 min. Mice were euthanized and perfused with 50 ml PBS. Tibias were isolated and fixed and bone tissue sections were prepared. Bar, […]. The arrowheads indicate dye uptake.
Determining the effect a compound on the opening of hemichannels in osteocytes in bone tissue in vivo. One example of an in vivo assay to analyze hemichannels in osteocytes uses 3-4 month old mice or rats. The animals are weighed. A test reagent is introduced into the animal through intraperitoneal (IP) injection. After 2-4 hours, fluorescence tracer dyes (i.e. Evans blue, Alexa 594) are injected into lateral tail vein of the animal or by IP injection. Note: up to 1% of animal's body weight in volume can be injected. In certain aspects the animal is warmed prior to tail vein injection to dilate the tail vein. After 2-4 hours, the animal is scarified and tibial and femur bones free of muscle tissues are dissected and washed multiple times with PBS. […] The bone sections can be examined under fluorescence microscope and the degree of osteocytes in the bone taking up tracer dyes are quantified using Image J. […]

[5] = molecular target: T1, Cx43 hemichannels; test: Dye uptake assay for hemichannel activity in low Ca2+ and Mg2+ media; format: cell-based; set-up: endogenous in cells; host or cells: MLO-Y4 osteocytic cells; settings: MLO-Y4 cells, mAbs for 20 min
Method: (§1) Dye uptake assay was performed in the presence of EtBr with or without mAbs for 20 min. (B) HeLa cells transfected with Cx43 were incubated with mAbs for 3 h and a signal cell was microinjected with AlexaFluor 488 to evaluate the extent of dye transfer assayed for gap junctions.
(§2) Dye uptake for hemichannel activities. Dye uptake measurements were evaluated using snap shot photographs. MLO-Y4 cells were plated on the collagen coated 35 mm dish and incubated with recording medium, HCO3^− free saline medium buffered with 10 mM HEPES salt composition in mM, 154 NaCl, 5.4 KCl, 1.8 CaCl2, 1.0 MgCl2, 5 Glucose. Medium with low concentration of divalent cation (low[X^2]) was added 0.5 mM EGTA but not CaCl2 and MgCl2. The recording or low[X^2] containing 50 μM EtBr for snap shot recording. Cells were exposed to 100 μM of EtBr during 5 min, then rinsed 3 times with PBS and fixed with 2% […]. At least 3 microphotographs of fluorescence fields were taken with a 10× dry objective in an inverted microscope (Carl Zeiss) with a rhodamine filter. The image analysis was made offline with the software image J. The average of pixel density of 30 random cells was measured.

[6] = molecular target: T3, gap junction channels (Hela cells transfected with Cx43) (Homo sapiens, UniProt P17302); test: Parachuting dye transfer assay for gap junctions; format: cell-based; settings: Hela cells transfected with Cx43, calcein red-orange-AM / Oregon green 488 BAPTA-2-AM
T3 construct: expressed in transfected cells; host or cells: HeLa cells
T3 sequence (P17302 whole entry): as the sequence (P17302 whole entry) above
Method: FIG. 15 illustrates parachuting dye transfer assay showing M2 and M7, but not M1 blocks gap junction channels. Hela cells transfected with Cx43 was used for parachuting dye transfer experiments. Donor cells were incubated with 5 μM calcein red-orange-AM (790 Da) which is permeable to gap junctions and 5 μM Oregon green 488 BAPTA-2-AM (1752 Da) which is non-permeable to gap junctions for 40 minutes at 37° C. Donor cells were treated with trypsin and separated preloaded cells were layered (‘parachuted’) over the top of the unlabeled recipient cells at a 1:4 donor to receiver ratio. Cells were allowed to attach for 90 min. The cells were examined under a fluorescence microscope.
Cell parachute dye-transfer assay for gap junctions. MLO-Y4 cells were grown to confluence in 12 well plates. The donor cells were incubated with 5 μM calcein red-orange-AM (790 Da) and 5 μM Oregon green 488 BAPTA-2-AM (1752 Da) for 40 minutes at 37° C. Gap junction intercellular communication can be followed by simultaneously labeling cells with calcein red-orange as a gap junction permeable tracer dye and the gap junction channel impermeable dye Oregon green 488 BAPTA-2. Donor cells preloaded were remove form the plate by trypsinization. Preloaded cells were layered (‘parachuted’) over the top of the unlabeled recipient cells cultured in at a 1:4 donor to receiver ratio. Cells were allowed to attach for various periods 1 hours, and then carefully washed 3 times and fixed in fresh 2% PFA 10 min RT and rinse 3 times again. The cells were examined with a fluorescence microscope. For calcein red-orange transfer, the threshold was adjusted to clearly distinguish the dye-transfer boundaries. The dye transfer positive criterion was detecting the calcein red-orange/Oregon green 488 BAPTA-2 with contact cells calcein red-orange positive and Oregon green 488 BAPTA-2 negative. The dye transfer was almost undetectable (<1%). The images were taken in places where we found Oregon green 488 BAPTA-2 green positive cells.

[7] = molecular target: T1, Cx43 hemichannels; test: Dye uptake after fluid flow shear stress in MLO-Y4 cells; format: cell-based; set-up: endogenous in cells; host or cells: MLO-Y4 osteocytic cells; settings: mAbs 20 min pretreatment, fluid flow shear stress 8 dynes/cm^2 10 min, 100 μM EtBr 5 min
Method: FIG. 16. […] MLO-Y4 cells were pretreated with or without mAbs for 20 min. The cells were subjected to fluid flow shear stress at 8 dynes/cm^2 for 10 min and dye uptake was performed with 100 μM EtBr for 5 min. Cells were rinsed, fixed and images were taken under fluorescence microscopy.
as §2
Fluid flow shear stress to open hemichannels. Fluid flow was created by parallel-plate flow chambers separated by a gasket of defined thickness with gravity-driven fluid flow using a peristaltic pump. The thickness of the gasket determined the channel height, which was adjusted along with flow rate to generate stress levels of 16 dyn/cm^2. The circulating medium was α-MEM buffered with 10 mM HEPES.

[8] = molecular target: T4, gap junctions (HeLa cells transfected with Cx43) (Homo sapiens, UniProt P17302); test: Microinjection dye transfer (dye coupling) assay for gap junctions; format: cell-based; settings: HeLa cells transfected with Cx43, mAbs for 3 h
T4 construct: expressed in transfected cells; host or cells: HeLa cells
T4 sequence (P17302 whole entry): as above
Method: as §1
Dye coupling assay for gap junctions. MLO-Y4 cells were plated on collagen coated 35 mm dish and incubated with recording medium (HCO3^− free αMEM medium buffered with 10 mM HEPES). Cells were microinjected using a micromanipulator InjectMan NI 2 and Femtojet both from Eppendorf (Eppendorf) at 37° C. with alexafluor 350 (Invitrogen, Eugene, Oregon, USA) (10 mM in PBS). Dye transfer was measured after 2 minutes of alexafluor 350 injection. The index of dye coupling was scored counting the number of cells that were dye transferred. Dye coupling was observed under an inverted microscope equipped with Xenon arc lamp illumination and a Nikon eclipse (Nikon, Japan) (excitation wavelengths 330-380 nm; emission wavelengths above 420 nm).

| Molecule | direct effect on migration of MDA-MB-231 cells [1] | opening of Cx43 hemichannels in osteocytes [2] | opening of Cx43 hemichannels in osteoblasts [3] | opening of Cx43 hemichannels in osteoblasts ([3]; listed as alendronate) | blocking of hemichannel opening induced by mechanical loading in osteocytes in vivo [4] | blocking of hemichannels (EtBr dye uptake) [5] | blocking of gap junction channels (parachuting dye transfer) [6] | blockage of hemichannel opening induced by mechanical loading [7] | blocking of gap junctions (AlexaFluor 488 dye transfer) [8] |
| --- | --- | --- | --- | --- | --- | --- | --- | --- | --- |
| NCCCC(O)(P(=O)(O)O)P(=O)(O)O [AD, alendronate] | does not have a direct effect; also recorded: not seen | induces the opening | does not open | do not appear to open | – | – | – | – | – |
| M1: mouse monoclonal antibody, heavy chain SEQ ID NO:2, light chain SEQ ID NO:4 (antibody, listed as Mus musculus) heavy: EVQLEQPGAELVKPGASVKLSCKASGYTFTSYYMYWVKQRPGQGLEWIGGINPSNGGTNFNEKFKNKATLTVDKSSSTAYMQLSSLTSEDSAVYYCTREGNPYYTMNYWGQGTSVTVSSAKTTPPSVY light: DIVMTQTPASLAVSLGQRATISYRASKSVSTSGYSYMHWNQQKPGQPPRLLIYLVSNLESGVPARFSGSGSGTDFTLNIHPVEEEDAATYYCQHIRELTRSEGGPSWK | – | – | – | – | blocks | blocks hemichannels | not | blockage | not gap junctions |
| M2: mouse monoclonal antibody, heavy chain SEQ ID NO:6, light chain SEQ ID NO:8 (antibody, listed as Mus musculus, V domains shown) VH: EVQLEQPGAELVKPGASVKLSCKASGYTFTSYYMYWVKQRPGQGLEWIGGINPSNGGTNFNEKFKNKATLTVDKSSSTAYMQLSSLTSEDSAVYYCTREGNPYYTMNYWGQGTSVTVSSAKTTPPSVY VL: DIVMTQTPSSLSVSAGEKVTMSCKSSQSLLNSGNQKTYLAWYQQKPGQPPKLLIYGASTRESGVPDRFTGSGSGTDFTLTISSVQAEDLAVYYCQNDHSYPFTFGSGTKLEIKRADAAPTVS | – | – | – | – | – | not hemichannels | blocks | not | blocks gap junctions |
| M7: mouse monoclonal antibody, heavy chain SEQ ID NO:10, light chain SEQ ID NO:12 (antibody, listed as Mus musculus) heavy: LEQPGAELVRPGASVMLSCKASGYIFTTYWMHWLKQRPGQGLDWIGEISPSNGRSNYNKKFKSKATLTVDKSSSTAYMQLSSLTSEDSAVYYCARFDEGDFWGQGTTLIVSSAKTTAPSVYPLAPVCGDTTGSSV light: DIVMTQTPASLAVSLGQRATISYRASKSVSTSGYSYMHWNQQKPGQPPRLLIYLVSNLESGVPARFSGSGSGTDFTLNIHPVEEEDAATYYCQHIRELTRSEGGPSWK | – | – | – | – | – | – | blocks | blockage | – |
